Some targets named below: tbb4a_human TUBB4A (UniProt P04350); tbb5_human TUBB (UniProt P07437); tbb6_human TUBB6 (UniProt Q9BUF5).
Chain of UniProt P07437 (P07437 whole entry): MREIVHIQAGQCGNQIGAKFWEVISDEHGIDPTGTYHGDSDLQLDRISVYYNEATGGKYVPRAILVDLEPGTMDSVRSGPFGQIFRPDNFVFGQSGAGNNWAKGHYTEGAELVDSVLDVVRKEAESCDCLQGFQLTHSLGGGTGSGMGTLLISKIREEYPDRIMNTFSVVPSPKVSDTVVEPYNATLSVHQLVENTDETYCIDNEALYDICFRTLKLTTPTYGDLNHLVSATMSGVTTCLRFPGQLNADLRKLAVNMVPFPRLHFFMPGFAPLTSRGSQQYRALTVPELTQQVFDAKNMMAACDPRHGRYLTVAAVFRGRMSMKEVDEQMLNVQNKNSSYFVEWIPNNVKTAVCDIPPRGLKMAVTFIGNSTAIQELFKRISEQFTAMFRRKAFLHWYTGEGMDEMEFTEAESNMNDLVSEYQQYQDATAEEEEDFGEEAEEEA
Chain of UniProt P04350 (P04350 whole entry): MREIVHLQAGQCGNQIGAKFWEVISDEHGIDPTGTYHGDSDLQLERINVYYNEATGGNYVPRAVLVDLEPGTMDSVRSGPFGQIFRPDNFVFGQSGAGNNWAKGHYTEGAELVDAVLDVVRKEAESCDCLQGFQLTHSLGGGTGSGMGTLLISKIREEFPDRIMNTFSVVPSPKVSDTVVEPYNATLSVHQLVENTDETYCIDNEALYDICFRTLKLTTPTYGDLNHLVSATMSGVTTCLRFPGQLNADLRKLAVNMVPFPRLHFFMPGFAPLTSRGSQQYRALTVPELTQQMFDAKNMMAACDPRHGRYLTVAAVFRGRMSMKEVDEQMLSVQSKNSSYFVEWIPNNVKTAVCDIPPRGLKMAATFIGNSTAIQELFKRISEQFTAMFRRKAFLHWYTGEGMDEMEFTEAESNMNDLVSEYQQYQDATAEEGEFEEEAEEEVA
Chain of UniProt Q9BUF5 (Q9BUF5 whole entry): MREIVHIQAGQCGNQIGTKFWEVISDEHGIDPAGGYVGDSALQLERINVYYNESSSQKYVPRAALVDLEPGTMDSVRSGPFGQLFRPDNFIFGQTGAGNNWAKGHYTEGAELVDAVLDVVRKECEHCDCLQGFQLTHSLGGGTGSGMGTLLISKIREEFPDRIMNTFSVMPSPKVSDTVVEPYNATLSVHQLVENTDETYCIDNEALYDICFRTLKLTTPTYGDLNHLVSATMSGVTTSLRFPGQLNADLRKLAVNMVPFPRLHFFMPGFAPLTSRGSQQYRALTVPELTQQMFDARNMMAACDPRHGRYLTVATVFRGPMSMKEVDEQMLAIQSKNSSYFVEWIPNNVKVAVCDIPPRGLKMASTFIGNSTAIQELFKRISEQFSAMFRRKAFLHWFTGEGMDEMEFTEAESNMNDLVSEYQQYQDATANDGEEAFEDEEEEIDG

On to “Leucine-rich repeat serine/threonine-protein kinase 2 (Homo sapiens), Q5S007 K1347A”, for which the “effect of a mutation on the interaction” value in the assay with tbb4a_human TUBB4A, with tbb5_human TUBB and with tbb6_human TUBB6 was “disrupting interaction” throughout. “Leucine-rich repeat serine/threonine-protein kinase 2 (Homo sapiens), Q5S007 R1441C”: the “effect of a mutation on the interaction” value in the assay with tbb4a_human TUBB4A and with tbb5_human TUBB was “increasing interaction” throughout.

Regarding “Leucine-rich repeat serine/threonine-protein kinase 2 (Homo sapiens), Q5S007 R1441G”, the “effect of a mutation on the interaction” value with tbb4a_human TUBB4A and with tbb5_human TUBB was “decreasing interaction” each time. Consider “Leucine-rich repeat serine/threonine-protein kinase 2 (Homo sapiens), Q5S007 R1441H”, for which the “effect of a mutation on the interaction” value in the assay with tbb4a_human TUBB4A and with tbb5_human TUBB was “decreasing interaction” in each case. With “Leucine-rich repeat serine/threonine-protein kinase 2 (Homo sapiens), Q5S007 T1343A”, in the assay with tbb4a_human TUBB4A, the “effect of a mutation on the interaction” value is “increasing interaction”. Turning to “Leucine-rich repeat serine/threonine-protein kinase 2 (Homo sapiens), Q5S007 T1343D”, the “effect of a mutation on the interaction” value in the assay with tbb4a_human TUBB4A and with tbb5_human TUBB was “decreasing interaction” in each case. In the case of “Leucine-rich repeat serine/threonine-protein kinase 2 (Homo sapiens), Q5S007 T1491A”, the “effect of a mutation on the interaction” value in the assay with tbb4a_human TUBB4A is recorded as “increasing interaction”. For “Leucine-rich repeat serine/threonine-protein kinase 2 (Homo sapiens), Q5S007 T1491D”, the “effect of a mutation on the interaction” value with tbb4a_human TUBB4A is given as “decreasing interaction”.

The record behind these values is IntAct's records for PubMed 24275654.
